Assay results published in patent US20110286916A1 (published 2011).

Tests used:
[1] = target: T1, human full-length Notch3 with C-terminal FLAG tag, stably expressed on 293 FlpIn (TREx) cells (human, UniProt Q9UM47 40-2321); assay: FACS, phage scFv
T1 construct: whole, on cells; made by the same strategy as the Notch1 line; also called 293-N3; hN3

[2] = target: T2, human full-length Notch1 with C-terminal FLAG tag, stably expressed on 293 FlpIn (TREx) cells (human, UniProt P46531 19-2555); assay: FACS, phage scFv
T2 construct: tetracycline/doxycycline-induced expression from pcDNA5/FRT/TO-HN1+FLAG; also called hN1; 293_N1

B1: N1wc182 (scFv, V domains shown)
VH: QVQLVQSGPEVKKPGTSVKVSCKASGFTFTSSAVQWVRQARGQRLEWIGWIVVGSGNTNYAQKFQERVTITRDMSTSTAYMELSSLRSEDTAVYYCVADTVYWGQGTLVTVSS
VL: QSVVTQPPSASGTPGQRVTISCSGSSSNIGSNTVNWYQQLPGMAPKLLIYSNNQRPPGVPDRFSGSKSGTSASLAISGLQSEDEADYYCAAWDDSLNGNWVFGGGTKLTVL
notes: phage scFv
binding result [1]: binds
binding result [2]: binds

B2: N1wc239 (scFv, V domains shown)
VH: EVQLVESGAEVKKPGASVKVSCKASGYNFTGYYIHWVRQAPGQGLEWMGWINPNSGGTNYAQKFQGRVIMTRDTSISTAYMELSRLRSDDTAVYYCATDSFDYWGKGTMVTVSS
VL: QSVLTQPPSASGTPGQRVAISCSGSHSNIRSNDVYWYQQFPGTAPKLLIYSNDQRPSGVSDRFAGSKSGTSASLAISGLRSEDESDYYCATWDDSLSGVVFGGGTKLTVL
notes: phage scFv
binding result [1]: binds
binding result [2]: binds

B3: N1wc295 (scFv, V domains shown)
VH: QVQLQQSGAEVKKPGASVKVSCKASGYNFTGYYMHWVRQAPGQGLEWMGWINPNSGGTNYAQNFQGRVTMTRDTSISTAYMELSRLRSDDTAVYYCATDSFDYWGRGTMVTVSS
VL: QSVLTQPPSASGTPGQRVTISCSGNRSNIGSNTVNWYQQLPGTAPKLLIYSNDQRPSGVPDRFSGSKSGTSASLTISGLQSDDEADFYCAAWDDNLNGYVFGSGTKVTVL
notes: phage scFv
binding result [1]: binds
binding result [2]: binds

B4: N1wc281 (scFv, V domains shown)
VH: QVQLQESGAEVKKPGASVKVSCRASGYTFTTNSLHWVRQAPGQGLDWMGVINPRDGSATVAQKFQGRITMTSDTSTSTVFLALSSLTSDDTGVYFCARDGLDYRDTSRILAPTDVWGRGTLVTVSS
VL: QSVLTQPPSVSVSPGQTASITCSGDKLGDKYTFWYQQKPGQSPVLIIYQDTKRPSGIPERFSGSNSGNTATLTISGTQAMDEADYYCQAWDSNTDHVIFGGGTKLTVL
notes: phage scFv
binding result [1]: binds
binding result [2]: binds

B5: N1wc170 (scFv, V domains shown)
VH: QVQLQQSGPEVKKPGASVKISCKTSGYTFSSFGISWVRQAPGQGPEWMGWVSPYSGDTDYAQKFRGRVTMTIDSSTDTAYVEMRSLRSDDTAIYYCANSPISDGSSSSYDNWGKGTLVTVSS
VL: SYELTQPPSVSVAPGQTARITCGGENIGTKSVHWYQQKSGQAPVLVIYEDKKRPSGIPDRFSGSSSGTMATLTITGAQVDDEADYYCYSADNTGDQRMFGGGTKLTVL
notes: phage scFv
binding result [1]: binds
binding result [2]: binds

B6: N1wc289 (scFv, V domains shown)
VH: QVQLVQSGAEVKKPGTTVKISCKVSGYKFTDYYIHWVRQAPGKGLEWMGFVDPTDDETRFAEKFQGRLTMTADTSRDTASMELSSLRSEDTAVYYCIRGIAALADWGRGTMVTVSS
VL: QAVLTQPSSLSASPGASASLTCTLRSDINLETSRIYWFQQKPGSPPRYLLRYQSDSDNNLDSGVPSRFSGSKDASANAGILLISGVQSEDEADYHCMIWHSGGSVFGGGTKVTVL
notes: phage scFv
binding result [1]: binds
binding result [2]: binds

B7: N1wc177 (scFv, V domains shown)
VH: QVQLVQSGAEVKEPGSSVRVSCKSSGGTFSNYAISWVRQAPGQGLEWMGGIIPGFGKTNYAQKFQGRVTITADASTSTTYMELRTLRSGDTAVYYCARDRGPDIGVAHFDSWGKGTMVTVSS
VL: QAVLTQPSSASGTPGQRVIISCSGSSSNIGKYIVNWYQQLPGAAPKLLIYTYNERPSGVPARFSGSTSGTSASLAITGLQSEDEADYYCASWDDSLNVVVFGGGTKLTVL
notes: phage scFv
binding result [1]: binds
binding result [2]: binds

B8: N1wc241 (scFv, V domains shown)
VH: EVQLVQSGAEVKKPGASVKVSCKTSGYTFNDYYHHWVRQAPGQGLEWMGWINPHTGVANYAEKYKGRLAMTGDTSISTIYMDLSSLISDDTAIYFCARERSEWRNTVSSPSEYFHHWGKGTLVTVSS
VL: QSVLTQPPSASGTPGQRVTISCSGSFSNIGSNNVYWYQQLAGTAPKLLIYRNNERPSGVPDRFSGSKSGTSASLAISGLRSEDEADYYCAVRDDSLSGHYVFGSGTKVTVL
notes: phage scFv
binding result [1]: binds
binding result [2]: binds
